Data from paper PMC3282623, “High-pressure-induced water penetration into 3-isopropylmalate dehydrogenase” (Acta Crystallographica Section D: Biological Crystallography, 2012).

Molecular target: the molecule itself
Assay: crystal structure; crystals of the SoIPMDH-IPM complex, space group C2, room temperature, in a glass capillary (0.1 MPa) or a diamond anvil cell (160, 340, 410, 580 and 650 MPa); 18% PEG 3350, 100 mM Na HEPES pH 7.0, 200 mM calcium acetate, 10 mM magnesium chloride, 10 mM IPM

B1: 3-isopropylmalate dehydrogenase (IPMDH) from Shewanella oneidensis MR-1 (enzyme)
chain: SYQIAVLAGDGIGPEVMAEARKVLKAVEARFGLNIEYTEYDVGGIAIDNHGCPLPEATLKGCEAADAILFGSVGGPKWEKLPPNEQPERGALLPLRGHFELFCNLRPAKLHDGLEHMSPLRSDISARGFDVLCVRELTGGIYFGKPKGRQGEGESEEAFDTMRYSRREISRIARIAFEAARGRRKKVTSVDKANVLACSVLWRQVVEEVAVDFPDVELEHIYIDNATMQLLRRPDEFDVMLCSNLFGDILSDEIAMLTGSMGLLSSASMNSTGFGLFEPAGGSAPDIAGKGIANPIAQILSAALMLRHSLKQEEAASAIERAVTKALNSGYLTGELLSSDQRHKAKTTVQMGDFIADAVKAGV
notes: 3-isopropylmalate dehydrogenase, product of the leuB gene of Shewanella oneidensis MR-1, subcloned into the BamHI/HindIII sites of pQE-80L (vector pQE-MR1-leuB); Crystallised in complex with its substrate 3-isopropylmalate (IPM) and a divalent cation; the two subunits of the dimer are related by the crystallographic twofold axis; also called SoIPMDH
- stoichiometry N: 2
